Reference: patent publication US20220306695A1, “COMPSTATIN ANALOGUES AND THEIR MEDICAL USES” (priority 2019, published 2022)
Starred links: 1 amine or outer side, 2 acyl side, 3 side chain; linkers in the order of their positions; H or OH if unused. Positions of bridges follow the written chain, without caps; N, C: chain ends. Non-standard residues stand in square brackets, D forms with d. Groups on a side chain read outwards from the residue. *: point of attachment. Trp(1-Me) = Cn1cc(C[C@H](N)C(=O)O)c2ccccc21; C16 diacid = O=C(O)CCCCCCCCCCCCCCC(=O)*; γGlu = O=C(O)[C@H](CCC(=O)[*:2])N[*:1]; NMeI = CC[C@H](C)[C@H](NC)C(=O)O; AEEA = NCCOCCOCC(=O)O; Sar = CNCC(=O)O

Target: Human C3 (human, UniProt P01024 23-1663)
Assay: cell-based or functional assay

Sequence of Human C3 (P01024 23-1663 limits assumed): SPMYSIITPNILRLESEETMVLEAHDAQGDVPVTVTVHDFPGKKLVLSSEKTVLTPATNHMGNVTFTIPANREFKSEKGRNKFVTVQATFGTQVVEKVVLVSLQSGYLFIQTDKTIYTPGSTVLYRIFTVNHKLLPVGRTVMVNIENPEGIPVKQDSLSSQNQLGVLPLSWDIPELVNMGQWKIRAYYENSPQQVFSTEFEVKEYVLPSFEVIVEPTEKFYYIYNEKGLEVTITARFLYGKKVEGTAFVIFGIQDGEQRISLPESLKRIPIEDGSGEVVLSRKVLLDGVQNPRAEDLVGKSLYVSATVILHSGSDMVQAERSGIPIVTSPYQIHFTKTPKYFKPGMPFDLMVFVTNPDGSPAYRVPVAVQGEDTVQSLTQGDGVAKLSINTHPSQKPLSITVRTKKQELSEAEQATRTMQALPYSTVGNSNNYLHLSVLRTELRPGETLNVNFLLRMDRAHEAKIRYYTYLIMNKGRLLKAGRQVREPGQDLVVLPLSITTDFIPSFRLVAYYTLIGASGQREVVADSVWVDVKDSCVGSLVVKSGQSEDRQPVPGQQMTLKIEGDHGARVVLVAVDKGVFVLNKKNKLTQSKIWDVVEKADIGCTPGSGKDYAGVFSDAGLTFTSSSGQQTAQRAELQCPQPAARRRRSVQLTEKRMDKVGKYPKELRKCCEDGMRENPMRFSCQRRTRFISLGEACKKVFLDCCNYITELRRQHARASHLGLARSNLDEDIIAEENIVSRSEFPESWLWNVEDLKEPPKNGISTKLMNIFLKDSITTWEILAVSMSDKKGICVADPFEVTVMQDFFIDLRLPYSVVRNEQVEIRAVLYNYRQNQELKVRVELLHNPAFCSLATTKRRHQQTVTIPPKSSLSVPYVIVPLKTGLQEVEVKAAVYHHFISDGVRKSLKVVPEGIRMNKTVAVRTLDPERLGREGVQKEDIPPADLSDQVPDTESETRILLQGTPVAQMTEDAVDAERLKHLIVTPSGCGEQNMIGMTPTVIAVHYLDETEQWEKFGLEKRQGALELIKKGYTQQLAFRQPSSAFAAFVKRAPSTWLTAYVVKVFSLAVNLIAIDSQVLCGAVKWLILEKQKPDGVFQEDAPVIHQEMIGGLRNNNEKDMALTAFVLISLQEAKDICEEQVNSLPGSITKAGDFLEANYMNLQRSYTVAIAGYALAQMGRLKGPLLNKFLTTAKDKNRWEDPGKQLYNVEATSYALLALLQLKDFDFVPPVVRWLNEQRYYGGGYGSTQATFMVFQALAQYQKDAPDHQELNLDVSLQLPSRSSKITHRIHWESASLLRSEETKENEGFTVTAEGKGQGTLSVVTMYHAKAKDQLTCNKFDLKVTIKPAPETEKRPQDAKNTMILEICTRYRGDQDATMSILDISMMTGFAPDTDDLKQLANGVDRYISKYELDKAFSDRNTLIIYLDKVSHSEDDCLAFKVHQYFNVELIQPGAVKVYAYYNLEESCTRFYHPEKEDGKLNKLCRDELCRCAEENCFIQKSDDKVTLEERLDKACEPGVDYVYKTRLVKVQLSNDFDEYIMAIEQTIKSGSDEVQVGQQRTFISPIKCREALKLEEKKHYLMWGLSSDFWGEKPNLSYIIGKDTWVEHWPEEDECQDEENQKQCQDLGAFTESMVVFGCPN

B1: Compound 46 (peptide)
peptide: Ac-ESSAICIWQDWGAHRCT-NH2
modifications: disulfide 6-16
SMILES: CC[C@H](C)[C@H](NC(=O)[C@H](C)NC(=O)[C@H](CO)NC(=O)[C@H](CO)NC(=O)[C@H](CCC(=O)O)NC(C)=O)C(=O)N[C@H]1CSSC[C@@H](C(=O)N[C@H](C(N)=O)[C@@H](C)O)NC(=O)[C@H](CCCNC(=N)N)NC(=O)[C@H](Cc2c[nH]cn2)NC(=O)[C@H](C)NC(=O)CNC(=O)[C@H](Cc2c[nH]c3ccccc23)NC(=O)[C@H](CC(=O)O)NC(=O)[C@H](CCC(N)=O)NC(=O)[C@H](Cc2c[nH]c3ccccc23)NC(=O)[C@H]([C@@H](C)CC)NC1=O
**Q.** Which “IC50[nM], inhibition of hemolysis” value does the source give for B1 here?
**A.** Its value is < 100 nM.

B2: Compound 47 (peptide)
peptide: Ac-ICIWQDWGAHRCTGAES-NH2
modifications: disulfide 2-12
SMILES: CC[C@H](C)[C@H](NC(C)=O)C(=O)N[C@H]1CSSC[C@@H](C(=O)N[C@H](C(=O)NCC(=O)N[C@@H](C)C(=O)N[C@@H](CCC(=O)O)C(=O)N[C@@H](CO)C(N)=O)[C@@H](C)O)NC(=O)[C@H](CCCNC(=N)N)NC(=O)[C@H](Cc2c[nH]cn2)NC(=O)[C@H](C)NC(=O)CNC(=O)[C@H](Cc2c[nH]c3ccccc23)NC(=O)[C@H](CC(=O)O)NC(=O)[C@H](CCC(N)=O)NC(=O)[C@H](Cc2c[nH]c3ccccc23)NC(=O)[C@H]([C@@H](C)CC)NC1=O
**Q.** B2 was tested. Which “IC50[nM], inhibition of hemolysis” value did it give?
**A.** The value was < 100 nM.

B3: Compound 48 (peptide)
peptide: H-[dY]ICI[Trp(1-Me)]QDW[Sar]AHRC[NMeI]-NH2
modifications: disulfide 3-13
SMILES: CC[C@H](C)[C@H](NC(=O)[C@H](N)Cc1ccc(O)cc1)C(=O)N[C@H]1CSSC[C@@H](C(=O)N(C)[C@H](C(N)=O)[C@@H](C)CC)NC(=O)[C@H](CCCNC(=N)N)NC(=O)[C@H](Cc2c[nH]cn2)NC(=O)[C@H](C)NC(=O)CN(C)C(=O)[C@H](Cc2c[nH]c3ccccc23)NC(=O)[C@H](CC(=O)O)NC(=O)[C@H](CCC(N)=O)NC(=O)[C@H](Cc2cn(C)c3ccccc23)NC(=O)[C@H]([C@@H](C)CC)NC1=O
**Q.** Which “IC50[nM], inhibition of hemolysis” value does the source give for B3 here?
**A.** Its value is < 100 nM.

B4: Compound 51 (peptide)
peptide: Ac-ICI[Trp(1-Me)]QDWGEHRCTGAES-NH2
modifications: disulfide 2-12
SMILES: CC[C@H](C)[C@H](NC(C)=O)C(=O)N[C@H]1CSSC[C@@H](C(=O)N[C@H](C(=O)NCC(=O)N[C@@H](C)C(=O)N[C@@H](CCC(=O)O)C(=O)N[C@@H](CO)C(N)=O)[C@@H](C)O)NC(=O)[C@H](CCCNC(=N)N)NC(=O)[C@H](Cc2c[nH]cn2)NC(=O)[C@H](CCC(=O)O)NC(=O)CNC(=O)[C@H](Cc2c[nH]c3ccccc23)NC(=O)[C@H](CC(=O)O)NC(=O)[C@H](CCC(N)=O)NC(=O)[C@H](Cc2cn(C)c3ccccc23)NC(=O)[C@H]([C@@H](C)CC)NC1=O
**Q.** How did the “IC50[nM], inhibition of hemolysis” value turn out when B4 was run?
**A.** Its value is < 100 nM.

B5: Compound 55 (peptide)
peptide: Ac-EGSAICIWQDWGEHRCTE-NH2
modifications: disulfide 6-16
SMILES: CC[C@H](C)[C@H](NC(=O)[C@H](C)NC(=O)[C@H](CO)NC(=O)CNC(=O)[C@H](CCC(=O)O)NC(C)=O)C(=O)N[C@H]1CSSC[C@@H](C(=O)N[C@H](C(=O)N[C@@H](CCC(=O)O)C(N)=O)[C@@H](C)O)NC(=O)[C@H](CCCNC(=N)N)NC(=O)[C@H](Cc2c[nH]cn2)NC(=O)[C@H](CCC(=O)O)NC(=O)CNC(=O)[C@H](Cc2c[nH]c3ccccc23)NC(=O)[C@H](CC(=O)O)NC(=O)[C@H](CCC(N)=O)NC(=O)[C@H](Cc2c[nH]c3ccccc23)NC(=O)[C@H]([C@@H](C)CC)NC1=O
**Q.** With B5 as the binder, how does the “IC50[nM], inhibition of hemolysis” value read?
**A.** Its value is < 250 nM.

B6: Compound 62 (peptide)
peptide: Ac-YCI[Trp(1-Me)]QDWGEHRCTGAES-NH2
modifications: disulfide 2-12
SMILES: CC[C@H](C)[C@@H]1NC(=O)[C@@H](NC(=O)[C@H](Cc2ccc(O)cc2)NC(C)=O)CSSC[C@@H](C(=O)N[C@H](C(=O)NCC(=O)N[C@@H](C)C(=O)N[C@@H](CCC(=O)O)C(=O)N[C@@H](CO)C(N)=O)[C@@H](C)O)NC(=O)[C@H](CCCNC(=N)N)NC(=O)[C@H](Cc2c[nH]cn2)NC(=O)[C@H](CCC(=O)O)NC(=O)CNC(=O)[C@H](Cc2c[nH]c3ccccc23)NC(=O)[C@H](CC(=O)O)NC(=O)[C@H](CCC(N)=O)NC(=O)[C@H](Cc2cn(C)c3ccccc23)NC1=O
**Q.** For B6, which “IC50[nM], inhibition of hemolysis” value is on record?
**A.** Its value is < 100 nM.

B7: Compound 66 (peptide)
peptide: Ac-YCIWQDWGEHRCTGAES-NH2
modifications: disulfide 2-12
SMILES: CC[C@H](C)[C@@H]1NC(=O)[C@@H](NC(=O)[C@H](Cc2ccc(O)cc2)NC(C)=O)CSSC[C@@H](C(=O)N[C@H](C(=O)NCC(=O)N[C@@H](C)C(=O)N[C@@H](CCC(=O)O)C(=O)N[C@@H](CO)C(N)=O)[C@@H](C)O)NC(=O)[C@H](CCCNC(=N)N)NC(=O)[C@H](Cc2c[nH]cn2)NC(=O)[C@H](CCC(=O)O)NC(=O)CNC(=O)[C@H](Cc2c[nH]c3ccccc23)NC(=O)[C@H](CC(=O)O)NC(=O)[C@H](CCC(N)=O)NC(=O)[C@H](Cc2c[nH]c3ccccc23)NC1=O
**Q.** With B7 as the binder, how does the “IC50[nM], inhibition of hemolysis” value read?
**A.** Its value is < 100 nM.

B8: Compound 75 (peptide)
peptide: Ac-SEFCI[Trp(1-Me)]QDWGEHRC[Sar]EA-NH2
modifications: disulfide 4-14
SMILES: CC[C@H](C)[C@@H]1NC(=O)[C@@H](NC(=O)[C@H](Cc2ccccc2)NC(=O)[C@H](CCC(=O)O)NC(=O)[C@H](CO)NC(C)=O)CSSC[C@@H](C(=O)N(C)CC(=O)N[C@@H](CCC(=O)O)C(=O)N[C@@H](C)C(N)=O)NC(=O)[C@H](CCCNC(=N)N)NC(=O)[C@H](Cc2c[nH]cn2)NC(=O)[C@H](CCC(=O)O)NC(=O)CNC(=O)[C@H](Cc2c[nH]c3ccccc23)NC(=O)[C@H](CC(=O)O)NC(=O)[C@H](CCC(N)=O)NC(=O)[C@H](Cc2cn(C)c3ccccc23)NC1=O
**Q.** B8 was tested. Which “IC50[nM], inhibition of hemolysis” value did it give?
**A.** Its value is < 100 nM.

B9: Compound 82 (peptide)
peptide: Ac-SE[Sar]CI[Trp(1-Me)]QDWGEHRCTEA-NH2
modifications: disulfide 4-14
SMILES: CC[C@H](C)[C@@H]1NC(=O)[C@@H](NC(=O)CN(C)C(=O)[C@H](CCC(=O)O)NC(=O)[C@H](CO)NC(C)=O)CSSC[C@@H](C(=O)N[C@H](C(=O)N[C@@H](CCC(=O)O)C(=O)N[C@@H](C)C(N)=O)[C@@H](C)O)NC(=O)[C@H](CCCNC(=N)N)NC(=O)[C@H](Cc2c[nH]cn2)NC(=O)[C@H](CCC(=O)O)NC(=O)CNC(=O)[C@H](Cc2c[nH]c3ccccc23)NC(=O)[C@H](CC(=O)O)NC(=O)[C@H](CCC(N)=O)NC(=O)[C@H](Cc2cn(C)c3ccccc23)NC1=O
**Q.** How did the “IC50[nM], inhibition of hemolysis” value turn out when B9 was run?
**A.** The value was < 100 nM.

B10: Compound 92 (peptide)
peptide: Ac-ICIWQDWGEHRCTEGK([γGlu-C16 diacid])-NH2
modifications: disulfide 2-12
SMILES: CC[C@H](C)[C@H](NC(C)=O)C(=O)N[C@H]1CSSC[C@@H](C(=O)N[C@H](C(=O)N[C@@H](CCC(=O)O)C(=O)NCC(=O)N[C@@H](CCCCNC(=O)CC[C@H](NC(=O)CCCCCCCCCCCCCCC(=O)O)C(=O)O)C(N)=O)[C@@H](C)O)NC(=O)[C@H](CCCNC(=N)N)NC(=O)[C@H](Cc2c[nH]cn2)NC(=O)[C@H](CCC(=O)O)NC(=O)CNC(=O)[C@H](Cc2c[nH]c3ccccc23)NC(=O)[C@H](CC(=O)O)NC(=O)[C@H](CCC(N)=O)NC(=O)[C@H](Cc2c[nH]c3ccccc23)NC(=O)[C@H]([C@@H](C)CC)NC1=O
**Q.** For B10, which “IC50[nM], inhibition of hemolysis” value is on record?
**A.** Its value is < 1000 nM.

B11: Compound 93 (peptide)
peptide: Ac-ICIWQDWGEHRCTEGK([AEEA-AEEA-γGlu-C16 diacid])-NH2
modifications: disulfide 2-12
SMILES: CC[C@H](C)[C@H](NC(C)=O)C(=O)N[C@H]1CSSC[C@@H](C(=O)N[C@H](C(=O)N[C@@H](CCC(=O)O)C(=O)NCC(=O)N[C@@H](CCCCNC(=O)COCCOCCNC(=O)COCCOCCNC(=O)CC[C@H](NC(=O)CCCCCCCCCCCCCCC(=O)O)C(=O)O)C(N)=O)[C@@H](C)O)NC(=O)[C@H](CCCNC(=N)N)NC(=O)[C@H](Cc2c[nH]cn2)NC(=O)[C@H](CCC(=O)O)NC(=O)CNC(=O)[C@H](Cc2c[nH]c3ccccc23)NC(=O)[C@H](CC(=O)O)NC(=O)[C@H](CCC(N)=O)NC(=O)[C@H](Cc2c[nH]c3ccccc23)NC(=O)[C@H]([C@@H](C)CC)NC1=O
**Q.** Which “IC50[nM], inhibition of hemolysis” value does the source give for B11 here?
**A.** The value was < 500 nM.
